Test results taken from the RNAGym collection of RNA variant scans (doi:10.1073/pnas.2313332121).

B1: TPR t1 (parent)
chain: GACCAAUCUGCCCUCAGAGCUCGAGAACAUCUUCGGAUGCAGAGGAGGCAGGCUUCGGUGGCGCGAUAGCGCCAACGUCCUCAACCUCCAAUGCAUCCCACCACAUGAUGAUGCCUGAAGAGCCUUGGUUUUUUG

Variants of: B1
Assay: polymerase ribozyme fitness, log enrichment relative to wild type (log ratio); higher = more active; in vitro selection for triplet polymerase activity
Procedure, shortened: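 PCR was used to build mutant libraries for each subunit of a heterodimeric triplet polymerase ribozyme, which were then transcribed. A single in vitro selection round, in triplicate, used a frozen incubation at −7 °C and recovered extended constructs by gel excision, streptavidin beads and RT-PCR. Fitness is the logarithm of genotype enrichment relative to wild-type enrichment, averaged over replicates with inverse-variance weights. The logarithm is base 2, and after Illumina sequencing only genotypes with ≥10 input reads and ≥1 read per output were kept.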

Row | Variant | polymerase ribozyme fitness (log ratio)
1 | G44U U96A U116G | -3.66
2 | A100U G120A G127C U131A | -2.13
3 | U9G G57A U78A A100C | -1.29
4 | C12G C13A C56U C124A U132C | 0.686
5 | C15G U55C A75G | -3.14
6 | U21C G77A C88U U106C G110A | -5
7 | U7G A84G U133G G135U | 0.51
8 | G65A U87G | -5.9
9 | A6C U9C A46C C62U C82U | -0.79
10 | G61A C64U U81G G120U | -7.13
11 | C8U G19C G42U A91G C123U | -0.955
12 | U7G C56A A84G U133G G135U | -0.824
13 | C12G G51C | -3.21
14 | A27C U32C G39A C98G | -7.35
15 | C73A G113C | -2.27
16 | U7C C12A C76G | 0.0602
17 | C13U A43C A50U C73U C86U U96G A108U G117U | -6.8
18 | G36A G44A C73G C79U U116G | -5.21
19 | C56U C86U C124U U131A | 1.32
20 | C11G C82U G117A | -0.654
21 | A43U U59A U134G | -1.56
22 | G42A A108G A121G | -2.74
23 | A43U G45A C53U C56G A84U | -2.19
24 | C85G C97U | -2.99

Row | Variant | polymerase ribozyme fitness (log ratio)
25 | A18U G52U G61A | -2.78
26 | A103U G113A U116A A121U | -5.45
27 | G44U C102G | -8.01
28 | C12U C94U U112C | 1.32
29 | C34U C97U | -4.85
30 | G63A A121C | 0.832
31 | C53U G60A C73A U106G C123G U126A | -2.6
32 | C73G A103C | -4.89
33 | C102A G117C | -6.66
34 | A41U C89U C123A | -1.59
35 | A16G C40A C49G | -3.32
36 | C28U A46U G48A A95G C124G | -3.31
37 | C80A U109G | -5.76
38 | C11G G42A A121C | 0.0348
39 | U14A A43G G58A C86U | -4.43
40 | A26U C53U | -3.26
41 | A37U G58A A100C C114U U133G | -4.99
42 | C3U C11U A37U C53U | -0.631
43 | G61C C79U G117A G128A | -4.76
44 | A46U G135C | -1.33
45 | G17U A95G U131A | -2.77
46 | A5C A74C | -1.06
47 | C53U C89U | -0.632
48 | G39U C124A | 0.161

Row | Variant | polymerase ribozyme fitness (log ratio)
49 | A2U C8U G45A C73U A95G G120A | -0.341
50 | G69A U106C C114A G120C | -3.12
51 | C70G G93A | -4.33
52 | C3U C34A C76U G120C | -3.72
53 | G35A G58C | -3.4
54 | G57A C99U | -4.88
55 | G42U U78C C88A U92A G120A | -1.83
56 | C31A C56U | -4.45
57 | C56G U59G C97A | -5.51
58 | G36U C99U C124A | -3.03
59 | U7A C12G A18C G45A G48A C49A A74G C85U | -5.35
60 | A18C U32C G120C | -0.763
61 | C11G C124G | 1.42
62 | G71A C89U A111U U112A C123A G127C | -2.37
63 | C3U U9G G19U G58C | -3.13
64 | C56G A84G G120A | -0.771
65 | A26G C89G | -3.55
66 | A41C C76U C89U A111C | -1.22
67 | C8U G36A A66C A84C G117A | -3.32
68 | G47A G61A C85A C98A | -6.7
69 | G36A U54G | -1.04
70 | C12U C22G U38A C79U G122A | -3.65
71 | C49A G71U U78A G120C | 0.393
72 | C12G G61U G107U | -4.66

Row | Variant | polymerase ribozyme fitness (log ratio)
73 | G19C G45A C53U | -3.65
74 | C20U C31G A66U C73U C98A G110A | -6.9
75 | G47U C114A | -2.77
76 | G58C C72U A119U | -0.967
77 | G61A C86U U116A G117A | -2.15
78 | C11U G57A G63A C101G | -3.69
79 | A68G U78C | -3.07
80 | C85G U130G | -2.71
81 | G39U G77U C89U | -1.38
82 | G10U C15G | -1.83
83 | C13A A111U | -4.17
84 | C85G G113C | -3.51
85 | U59G G61A | -2.76
86 | C15G A18U C70U U116A G120U | -1.19
87 | A41C G60C C101G U126G U132C | -4.76
88 | A105C U129A | -4.21
89 | C13U G17U | -2.37
90 | A43G U133A | -1.57
91 | C12A G51A A91G A119G G120A | -2.39
92 | C8A C20A C79A | -3.7
93 | A5G A27U A111G | -3.24
94 | C4A G63A | -1.65
95 | A16U C104U | -1.25
96 | C3U C73U | -0.279

Row | Variant | polymerase ribozyme fitness (log ratio)
97 | C3A U14G A119U G120A | -1.62
98 | C56G C62U A103U U109G | -6.92
99 | C82U C88G C124U | 0.172
100 | G52U C62A | -2.89
101 | U78G G110U G127U | -2.47
102 | G10U G25U C34A C99U G113C | -6.47
103 | G44C G71A C82U A83C | -2.53
104 | A6U C40U | 0.421
105 | A6C C8A G60A U87A | -0.0712
106 | G42A A50U C73A C123U | -2.52
107 | C8A A43C G57A C72G U96C A103G A108G U109G | -5.5
108 | C11U C101G | -2.02
109 | G45C C72U A90U G128C | -4.85
110 | G51U U59A | -2.98
111 | C62A U112A C123G | -1.31
112 | G51A C101U G117A | -4.58
113 | A2C C56U | -0.967
114 | C3U C12A A75U U87C C124U | 0.0602
115 | G45U U78G C88U | -1.1
116 | C11G C49A C64U | -0.24
117 | C11G C76A U112A G117C G128C U134G | -5.47
118 | A43C G71U C88A C123U | -3.41
119 | G19A G45A C62U G71A | -3.18
120 | A24G C34A C53U U87G U132A | -4.54

Row | Variant | polymerase ribozyme fitness (log ratio)
121 | G60U G69A | -4.86
122 | C11A C13G C62G | -3.87
123 | G60A C99U G127A | -4.87
124 | A29U A43U U78C U112A | -2.84
125 | C8U U38G G51A | -3.4
126 | G51C C62U | -3.45
127 | C4U C49U A66G G69C U78A | -5.15
128 | C15U G42C | -2.79
129 | G57U C101G U106A G122A | -0.938
130 | C11U U32A C34U G69U C88A | -4.62
131 | A41U C124G U129A | -0.389
132 | G42U U106A G120C | -2.14
133 | A46G A105C | -1.62
134 | A41U C99U C124U | -5.19
135 | C114U U116A | -5.58
136 | G10A C73U U78A C79U C94A | -0.0725
137 | C40A A41U G69U G135C | -0.488
138 | G63A A103U | -6.64
139 | C12G C15G A46U A74G U78A C114A | -6.73
140 | A16U A37C C53A A91G U112A | -1.42
141 | C53G G57U | 0.0545
142 | U14C G57A C97U | -3.84
143 | C3G G120A | -1.23
144 | C12U G42U A84C U116A | -3.42

Row | Variant | polymerase ribozyme fitness (log ratio)
145 | C31A C115U | -7.47
146 | C22G A26C C94A A95U A119G | -4.33
147 | A43U A50G C72A G93C A95C C115U | -4.47
148 | C12G C73A C79A C86U | -0.241
149 | A68G C115U | -3.75
150 | G47A C85G G113A U132A | -2.45
151 | C11A A46U G93A | -3.04
152 | C13U C40U A43G G52U G58C A91C | -2.35
153 | C11G C15A G19U G69C C98A C114U | -6.19
154 | G35A C88U C99A | -5.74
155 | C15G A118U U131A | -1.47
156 | U112A A118U | 0.895
157 | G36A G44U C72A C88A U106G G113C | -5.9
158 | G36C U78C A95C | -2.98
159 | A27G U125G | -2.34
160 | A5U C56A C102A U116C | -5.7
161 | C56A C86U | -0.995
162 | G19C C31G C72G G110U U131A | -7.2
163 | G47U U87A | -2.55
164 | G69A U81G A84C G93U C97G U112A | -6.86
165 | G63A U78C A91G A121G | 0.408
166 | C3G U109G | -5.75
167 | G45A G120C | 0.183
